The data set deals with HNF-4alpha (transfected expression vector). The data set can be described thus: cell_activity. To be noted: COS-7 cotransfection, no added fatty acids.

For “one to three C3P copies enhancing TK promoter CAT reporter”, the activity (fold activation) was 7.

(Values after US6303653.)
